The supplement of paper PMC10065799, “High-throughput profiling of sequence recognition by tyrosine kinases and SH2 domains using bacterial peptide display” (eLife, 2023)

Tests used:
[1] = biological target: Jak2 (UniProt O60674); assay: phosphorylation enrichment, bacterial display (enrichment ratio); higher = better substrate or ligand; peptides without Tyr show the background
[2] = biological target: Hck (UniProt P08631); assay: as above
[3] = biological target: FGFR1 (UniProt P11362); assay: as above
[4] = biological target: Fyn (UniProt P06241); assay: as above
[5] = system: c-Src; assay: as above
[6] = biological target: MERTK (UniProt Q12866); assay: as above
[7] = biological target: EPHB2 (UniProt P29323); assay: as above
[8] = biological target: Fes (UniProt P07332); assay: as above
[9] = system: c-Abl (mouse); assay: as above
[10] = system: Fer (mouse); assay: as above
[11] = biological target: FGFR3 (UniProt P22607); assay: as above
[12] = system: AncSZ; assay: as above
[13] = biological target: EPHB1 (UniProt P54762); assay: as above
[14] = biological target: c-Src SH2; assay: SH2 binding enrichment of the phosphorylated peptide, bacterial display (enrichment ratio); higher = better substrate or ligand; peptides without Tyr show the background
[15] = biological target: Grb2 SH2 (UniProt P62993); assay: as above
[16] = biological target: SHP2-C SH2; assay: as above
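Wherever SH2 binding enrichment of the phosphorylated peptide, bacterial display is given: peptide library displayed on the E. coli surface as eCPX fusions, selected cells deep-sequenced, score is each peptide's frequency after selection divided by its frequency in the input.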
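Wherever phosphorylation enrichment, bacterial display is given: 11-residue human phosphosite peptides and single-mutation variants displayed on the E. coli surface, counted by deep sequencing, each peptide's frequency after selection divided by its frequency in the unselected input library; frequency after pTyr selection over input frequency; kinase dosed for 20-30% of maximal phosphorylation in three min.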

MERTK, sequence (Q12866 whole entry, looked up): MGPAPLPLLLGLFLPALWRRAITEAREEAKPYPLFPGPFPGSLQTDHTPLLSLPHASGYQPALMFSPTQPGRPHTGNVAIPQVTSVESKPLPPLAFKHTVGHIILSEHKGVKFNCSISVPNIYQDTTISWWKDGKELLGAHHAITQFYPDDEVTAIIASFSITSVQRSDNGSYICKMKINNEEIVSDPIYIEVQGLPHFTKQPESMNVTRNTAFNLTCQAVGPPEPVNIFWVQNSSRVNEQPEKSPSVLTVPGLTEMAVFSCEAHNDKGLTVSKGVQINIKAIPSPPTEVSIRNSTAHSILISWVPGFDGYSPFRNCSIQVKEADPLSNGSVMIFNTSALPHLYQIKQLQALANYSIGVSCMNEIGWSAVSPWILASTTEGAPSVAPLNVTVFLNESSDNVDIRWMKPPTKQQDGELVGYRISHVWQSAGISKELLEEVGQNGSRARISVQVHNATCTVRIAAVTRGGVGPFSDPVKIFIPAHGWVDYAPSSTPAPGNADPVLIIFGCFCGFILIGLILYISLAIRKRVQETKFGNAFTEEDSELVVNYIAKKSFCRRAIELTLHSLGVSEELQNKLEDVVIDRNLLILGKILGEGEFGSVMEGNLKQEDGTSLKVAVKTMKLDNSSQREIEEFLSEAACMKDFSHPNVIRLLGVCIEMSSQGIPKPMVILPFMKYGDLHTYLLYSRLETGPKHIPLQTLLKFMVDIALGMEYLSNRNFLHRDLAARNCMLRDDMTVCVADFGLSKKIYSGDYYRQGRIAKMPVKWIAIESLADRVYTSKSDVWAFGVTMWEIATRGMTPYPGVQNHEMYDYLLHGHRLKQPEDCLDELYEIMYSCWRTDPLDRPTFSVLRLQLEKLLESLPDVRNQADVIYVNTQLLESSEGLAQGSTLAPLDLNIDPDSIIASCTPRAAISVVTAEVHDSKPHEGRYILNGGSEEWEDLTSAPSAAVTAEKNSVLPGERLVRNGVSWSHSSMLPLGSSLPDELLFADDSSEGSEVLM
Fes, sequence (P07332 whole entry, looked up): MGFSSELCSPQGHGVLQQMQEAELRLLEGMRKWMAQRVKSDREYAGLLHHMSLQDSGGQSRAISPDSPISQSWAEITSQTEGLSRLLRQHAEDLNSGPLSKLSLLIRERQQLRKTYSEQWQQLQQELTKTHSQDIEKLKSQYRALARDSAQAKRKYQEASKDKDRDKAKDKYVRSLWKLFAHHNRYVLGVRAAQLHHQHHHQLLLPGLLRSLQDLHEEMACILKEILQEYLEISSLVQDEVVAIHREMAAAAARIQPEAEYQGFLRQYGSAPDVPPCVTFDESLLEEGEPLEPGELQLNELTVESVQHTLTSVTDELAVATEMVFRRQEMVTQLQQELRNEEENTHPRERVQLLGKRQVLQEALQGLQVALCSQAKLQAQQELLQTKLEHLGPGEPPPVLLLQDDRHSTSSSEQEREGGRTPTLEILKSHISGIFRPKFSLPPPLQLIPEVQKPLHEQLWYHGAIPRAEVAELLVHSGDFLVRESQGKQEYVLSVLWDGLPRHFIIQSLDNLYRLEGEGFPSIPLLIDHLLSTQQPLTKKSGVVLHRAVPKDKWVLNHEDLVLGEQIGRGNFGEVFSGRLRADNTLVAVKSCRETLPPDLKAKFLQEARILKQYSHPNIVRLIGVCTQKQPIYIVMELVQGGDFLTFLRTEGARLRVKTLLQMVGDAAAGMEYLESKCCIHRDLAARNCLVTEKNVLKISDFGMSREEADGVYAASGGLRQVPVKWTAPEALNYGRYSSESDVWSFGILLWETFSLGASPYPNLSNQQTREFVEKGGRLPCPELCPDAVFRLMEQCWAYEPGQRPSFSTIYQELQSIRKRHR
EPHB1, sequence (P54762 whole entry, looked up): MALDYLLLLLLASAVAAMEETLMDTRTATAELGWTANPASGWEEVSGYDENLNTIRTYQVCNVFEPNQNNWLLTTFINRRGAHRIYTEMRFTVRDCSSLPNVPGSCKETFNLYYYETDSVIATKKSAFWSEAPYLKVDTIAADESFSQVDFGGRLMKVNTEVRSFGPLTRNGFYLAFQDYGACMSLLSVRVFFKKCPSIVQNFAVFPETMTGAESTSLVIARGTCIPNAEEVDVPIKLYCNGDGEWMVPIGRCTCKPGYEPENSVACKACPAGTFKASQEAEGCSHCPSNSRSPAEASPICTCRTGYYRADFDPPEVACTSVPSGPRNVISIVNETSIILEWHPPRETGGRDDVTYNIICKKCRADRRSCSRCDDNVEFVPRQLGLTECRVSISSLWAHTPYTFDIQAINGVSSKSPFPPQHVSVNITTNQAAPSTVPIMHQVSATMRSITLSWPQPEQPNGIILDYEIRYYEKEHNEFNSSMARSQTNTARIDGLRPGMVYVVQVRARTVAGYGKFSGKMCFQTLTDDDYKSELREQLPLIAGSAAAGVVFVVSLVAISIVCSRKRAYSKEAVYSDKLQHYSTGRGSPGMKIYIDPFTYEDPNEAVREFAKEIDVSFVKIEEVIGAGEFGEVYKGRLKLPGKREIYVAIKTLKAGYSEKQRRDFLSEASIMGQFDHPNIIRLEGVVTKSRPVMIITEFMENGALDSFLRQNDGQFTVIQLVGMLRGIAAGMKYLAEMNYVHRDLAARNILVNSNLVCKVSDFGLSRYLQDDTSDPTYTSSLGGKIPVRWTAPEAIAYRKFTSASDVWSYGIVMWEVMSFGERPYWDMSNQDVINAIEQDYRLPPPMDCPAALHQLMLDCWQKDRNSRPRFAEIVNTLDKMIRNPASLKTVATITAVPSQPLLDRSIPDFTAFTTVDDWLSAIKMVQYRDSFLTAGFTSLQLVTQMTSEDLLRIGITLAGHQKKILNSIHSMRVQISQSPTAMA
Hck, sequence (P08631 whole entry, looked up): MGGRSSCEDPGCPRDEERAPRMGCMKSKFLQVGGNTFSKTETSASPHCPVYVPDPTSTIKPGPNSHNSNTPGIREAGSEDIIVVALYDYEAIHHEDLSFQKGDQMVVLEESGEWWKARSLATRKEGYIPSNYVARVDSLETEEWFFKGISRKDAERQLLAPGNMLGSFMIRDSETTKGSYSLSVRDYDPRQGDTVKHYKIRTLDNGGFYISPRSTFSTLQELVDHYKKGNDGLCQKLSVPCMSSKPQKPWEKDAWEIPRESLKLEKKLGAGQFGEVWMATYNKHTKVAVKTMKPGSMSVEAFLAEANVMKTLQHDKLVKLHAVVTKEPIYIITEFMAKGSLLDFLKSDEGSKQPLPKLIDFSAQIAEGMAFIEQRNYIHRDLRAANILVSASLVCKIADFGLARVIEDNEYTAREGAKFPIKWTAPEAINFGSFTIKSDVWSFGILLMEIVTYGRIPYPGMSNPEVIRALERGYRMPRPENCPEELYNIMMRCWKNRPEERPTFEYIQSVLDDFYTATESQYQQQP
FGFR1, sequence (P11362 whole entry, looked up): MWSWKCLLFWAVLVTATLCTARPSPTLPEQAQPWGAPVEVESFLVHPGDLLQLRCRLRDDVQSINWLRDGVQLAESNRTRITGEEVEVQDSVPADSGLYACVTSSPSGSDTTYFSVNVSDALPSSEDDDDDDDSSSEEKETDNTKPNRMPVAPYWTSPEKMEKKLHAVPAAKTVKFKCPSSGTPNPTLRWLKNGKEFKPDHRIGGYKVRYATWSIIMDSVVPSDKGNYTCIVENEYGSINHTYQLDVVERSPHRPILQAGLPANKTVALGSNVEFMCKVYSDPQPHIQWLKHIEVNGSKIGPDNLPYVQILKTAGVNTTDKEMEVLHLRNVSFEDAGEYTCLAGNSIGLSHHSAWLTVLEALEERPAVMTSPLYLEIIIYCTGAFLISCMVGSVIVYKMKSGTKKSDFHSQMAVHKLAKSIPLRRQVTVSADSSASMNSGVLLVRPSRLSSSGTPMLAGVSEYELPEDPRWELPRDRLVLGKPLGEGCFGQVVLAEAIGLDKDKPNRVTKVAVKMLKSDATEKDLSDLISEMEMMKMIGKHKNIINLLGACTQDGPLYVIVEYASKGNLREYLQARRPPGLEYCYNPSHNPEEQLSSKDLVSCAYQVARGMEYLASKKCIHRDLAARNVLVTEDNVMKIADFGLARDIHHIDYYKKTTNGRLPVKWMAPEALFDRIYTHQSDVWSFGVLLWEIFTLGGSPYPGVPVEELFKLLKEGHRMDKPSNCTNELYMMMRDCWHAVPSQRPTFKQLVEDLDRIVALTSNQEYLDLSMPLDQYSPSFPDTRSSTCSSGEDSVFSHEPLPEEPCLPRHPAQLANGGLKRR
FGFR3, sequence (P22607 whole entry, looked up): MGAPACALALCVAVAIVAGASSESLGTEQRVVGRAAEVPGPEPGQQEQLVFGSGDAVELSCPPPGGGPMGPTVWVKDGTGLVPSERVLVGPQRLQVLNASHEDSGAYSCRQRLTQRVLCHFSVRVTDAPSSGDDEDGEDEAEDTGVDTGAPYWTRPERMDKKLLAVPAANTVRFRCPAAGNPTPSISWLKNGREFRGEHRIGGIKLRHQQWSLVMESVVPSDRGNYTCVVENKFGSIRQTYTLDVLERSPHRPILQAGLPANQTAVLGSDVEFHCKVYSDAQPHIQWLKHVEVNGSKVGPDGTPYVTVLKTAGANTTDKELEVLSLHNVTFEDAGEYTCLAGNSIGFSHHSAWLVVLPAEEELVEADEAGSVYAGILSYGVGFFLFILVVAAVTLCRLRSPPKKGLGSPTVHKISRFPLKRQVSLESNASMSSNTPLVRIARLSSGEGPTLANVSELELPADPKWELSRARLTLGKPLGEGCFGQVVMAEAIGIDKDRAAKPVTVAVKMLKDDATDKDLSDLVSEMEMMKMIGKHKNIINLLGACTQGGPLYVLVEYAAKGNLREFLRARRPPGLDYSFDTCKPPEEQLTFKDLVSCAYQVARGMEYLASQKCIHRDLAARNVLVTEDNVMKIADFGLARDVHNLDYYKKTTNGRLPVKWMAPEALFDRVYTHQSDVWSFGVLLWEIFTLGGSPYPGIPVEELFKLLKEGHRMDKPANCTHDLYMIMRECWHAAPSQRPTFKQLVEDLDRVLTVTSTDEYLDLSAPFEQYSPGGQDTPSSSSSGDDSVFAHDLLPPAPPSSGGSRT

Sequence	phosphorylation enrichment [1]	phosphorylation enrichment [2]	phosphorylation enrichment [3]	phosphorylation enrichment [4]	phosphorylation enrichment [5]	phosphorylation enrichment [6]	phosphorylation enrichment [7]	phosphorylation enrichment [8]	phosphorylation enrichment [9]	phosphorylation enrichment [10]	phosphorylation enrichment [11]	phosphorylation enrichment [12]	phosphorylation enrichment [13]	SH2 binding enrichment [14]	SH2 binding enrichment [15]	SH2 binding enrichment [16]
GDAMLYYPSVS [GPR143_Y177_A173D]	3.08	2.77	5.91	0.957	2.22	4.84	0.702	0.736	1.36	1.27	4.78	0.95	0.763	0.773	0.825	0.759
ETVHRYVELLD [AP1S3_Y87_I83T]	0.752	0.52	0.591	0.478	0.461	0.415	0.654	0.997	0.613	0.435	0.746	0.905	0.538	24.5	0.929	1.94
RIDRKYKKVRF [F8_Y442_G439D]	2.67	1.05	0.72	0.849	1.32	1.19	0.807	1	1.3	0.934	0.922	1.25	0.761	0.656	1.17	0.665
GRQWNYVASML [KLHL4_Y552_S557L]	0.737	0.418	0.382	0.434	0.391	0.367	0.481	0.809	0.591	0.366	0.565	0.731	0.405	0.945	1.25	1.33
VEDQYYRVDCY [FHL1_Y208_C209R]	1.98	0.993	7.43	0.892	1.55	0.94	0.712	1.46	0.958	0.598	6.22	2.93	0.711	0.897	0.891	0.677
TLQIMYGCDVG [HLA-A_Y123_I119L]	1.4	0.625	0.619	0.528	0.673	0.459	0.606	1.34	0.997	0.654	0.887	1.23	0.594	0.546	0.851	0.577
SSNLYYRCLTA [CNGA3_Y169_W171C]	1.5	0.807	0.949	0.493	0.63	1.89	0.766	1.12	0.896	0.571	1.13	1.05	0.563	0.425	0.702	0.611
LNCDRYSAGLL [PDE6A_Y275_V277A]	0.87	0.39	0.396	0.512	0.448	0.378	0.481	0.834	0.673	0.432	0.612	0.919	0.487	0.419	0.755	0.595
TLMNAYSSCSH [KIF11_Y231_R234C]	0.642	0.557	0.436	0.462	0.45	0.496	0.566	0.803	0.597	0.599	0.566	0.702	0.465	1.24	0.808	0.658
GGEAIYAAPFA [Abl_opt_1995]	0.747	12.7	2.48	13.1	9.05	13.5	27.9	1.11	35.6	20.5	2.05	4	20.2	0.486	0.778	0.416
EVEPTYVVLYD [ERCC4_Y577_R576T]	1.1	3	5.87	6	4.73	3.54	13.7	1.13	0.864	1.49	4.01	1.76	10.9	0.532	0.775	0.563
TISPYYRQSLF [CRYAA_Y48]	0.745	0.433	0.613	0.414	0.492	0.468	0.474	0.787	0.617	0.479	0.653	0.859	0.526	0.678	0.783	0.767
REETTYLPLTS [ICAM3_Y527_S525T]	1.03	1.7	0.74	0.864	1.61	0.901	0.548	1.05	0.781	0.608	0.644	1.39	0.656	0.36	0.957	0.746
PVQAAYQKVVA [HBB_Y131]	0.37	0.505	0.645	0.418	0.471	0.716	0.536	0.438	0.716	0.557	0.591	0.41	0.694	0.706	0.795	0.516
TFEPNYGTVKQ [RAPGEF6_Y1447_YF]	0.488	0.822	0.471	1.36	1.22	0.442	1.53	0.607	0.522	0.881	0.63	1.01	0.582	0.523	0.826	0.794
GCRSKYVGLWR [KCNQ1_Y184_G189R]	0.395	0.36	0.382	0.401	0.365	0.394	0.325	0.519	0.409	0.42	0.591	0.638	0.411	0.802	1.18	0.744
ARSHIYTLASC [MEFV_Y741_F743L]	0.802	0.95	0.541	2.13	2.07	1.17	0.58	1.13	0.803	0.657	0.68	1.05	0.598	4.4	0.965	0.693

Sequence	phosphorylation enrichment [1]	phosphorylation enrichment [2]	phosphorylation enrichment [3]	phosphorylation enrichment [4]	phosphorylation enrichment [5]	phosphorylation enrichment [6]	phosphorylation enrichment [7]	phosphorylation enrichment [8]	phosphorylation enrichment [9]	phosphorylation enrichment [10]	phosphorylation enrichment [11]	phosphorylation enrichment [12]	phosphorylation enrichment [13]	SH2 binding enrichment [14]	SH2 binding enrichment [15]	SH2 binding enrichment [16]
QAQMDYRRLQP [MPL_Y591]	0.795	0.367	0.306	0.543	0.428	0.321	0.439	0.942	0.622	0.48	0.788	0.666	0.373	0.319	0.819	0.63
SKKSTYQALLD [GANC_Y43]	0.907	0.433	0.416	0.447	0.423	0.403	0.369	0.541	0.382	0.305	0.405	0.563	0.394	0.555	0.788	0.595
ASFGPNTRVQS [FOXL2_Y258_Y258N_YF]	0.565	0.433	0.479	0.466	0.394	0.365	0.399	0.619	0.525	0.447	0.442	0.567	0.445	0.542	0.8	0.267
SSMIDYKPLEK [MYOC_Y479_N480K]	0.495	0.413	0.377	0.434	0.384	0.441	0.421	0.538	0.459	0.322	0.425	0.562	0.357	0.476	1.19	0.565
NDENIYKGLPD [VAV3_Y141_D139N]	1.14	1.4	0.529	1.23	1.78	0.542	0.644	1.2	1.08	0.579	0.799	1.34	0.564	0.494	1.1	0.645
RFQKLYLDRNL [IGFALS_Y248_L244F]	0.538	0.569	0.636	0.492	0.332	0.342	0.509	0.761	0.486	0.224	0.655	0.726	0.529	0.463	0.793	0.771
FGVTLYPNSGE [MEP1A_Y472_R476G]	1.23	0.574	0.524	0.481	0.473	0.341	0.726	1.12	0.794	0.54	0.714	1.28	0.597	0.588	0.9	0.851
ATVRPYRPFII [LRP5_Y1528_A1525V_YF]	0.644	0.462	0.418	0.397	0.493	0.395	0.336	0.61	0.505	0.406	0.459	0.653	0.438	0.616	0.953	0.79
KGEDFYFVTCH [FHL1_Y149_C150Y_YF]	1.49	0.503	0.62	0.451	0.468	0.491	0.788	1.57	0.9	0.588	0.946	1.26	0.709	0.392	0.743	0.345
TPRNTYKMTSL [MKI67_Y849]	0.477	0.395	0.386	0.475	0.459	0.428	0.545	0.512	0.496	0.443	0.445	0.477	0.323	0.805	1.36	0.891
TLLERYGMTKI [ACSF3_Y355_E359K]	0.625	0.478	0.513	0.484	0.43	0.407	0.594	0.734	0.728	0.374	0.667	0.751	0.531	0.433	0.884	0.636
PGPPGYCDSSH [COL12A1_Y3043_Q3048H]	1.16	1.58	0.512	0.46	0.727	0.84	0.514	1.62	1.21	0.542	0.941	1.09	0.724	0.498	1.08	0.671
EADRKYEEVAG [TPM3_Y163_R168G]	0.998	0.523	0.6	0.508	0.452	0.48	0.578	1.07	0.613	0.464	0.685	1.12	0.655	21.4	0.93	0.772
LGRTVYADCLA [ABCA4_Y2063_L2060R]	1.76	0.989	0.918	0.902	0.903	0.939	1.61	2.65	1.39	1.4	1.37	0.983	1.26	1.71	1.15	3.39
TGHKGYVAFLE [CARD9_Y76]	0.635	0.494	0.414	0.358	0.394	0.396	0.466	0.666	0.617	0.403	0.507	0.674	0.392	1.93	0.739	0.81
HLEKKYVHRDS [CSF1R_Y708_R710H]	0.358	0.399	0.42	0.585	0.34	0.438	0.314	0.612	0.276	0.585	0.678	0.615	0.471	0.659	1.26	1.17
